Assays:
brox_human BROX [1] = target: brox_human BROX (UniProt Q5VW32)
brox_human BROX [2] = target: brox_human BROX (UniProt Q5VW32); remark: listed apart in the source

Sequence of brox_human BROX (Q5VW32 whole entry): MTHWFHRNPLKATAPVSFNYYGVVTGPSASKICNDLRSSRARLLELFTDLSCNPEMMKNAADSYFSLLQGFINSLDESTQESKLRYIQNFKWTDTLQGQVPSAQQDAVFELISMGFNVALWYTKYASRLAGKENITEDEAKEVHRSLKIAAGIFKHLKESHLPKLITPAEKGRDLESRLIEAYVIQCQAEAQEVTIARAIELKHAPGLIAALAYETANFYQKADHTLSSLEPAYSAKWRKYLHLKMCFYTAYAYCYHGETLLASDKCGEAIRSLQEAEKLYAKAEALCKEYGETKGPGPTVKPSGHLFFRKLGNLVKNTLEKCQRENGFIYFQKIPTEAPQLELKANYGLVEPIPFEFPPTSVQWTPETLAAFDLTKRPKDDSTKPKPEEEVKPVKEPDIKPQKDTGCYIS
Sequence of Charged multivesicular body protein 5 (Homo sapiens), Q9NZZ3-1 P214G (Q9NZZ3 whole entry P214G): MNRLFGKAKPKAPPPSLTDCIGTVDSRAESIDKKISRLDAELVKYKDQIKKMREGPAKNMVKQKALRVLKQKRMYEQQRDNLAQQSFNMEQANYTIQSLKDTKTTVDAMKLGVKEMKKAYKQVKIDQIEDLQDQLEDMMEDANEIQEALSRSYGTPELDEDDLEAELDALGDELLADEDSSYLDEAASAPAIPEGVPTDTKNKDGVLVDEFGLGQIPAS
Sequence of Charged multivesicular body protein 5 (Homo sapiens), Q9NZZ3-1 F211A (Q9NZZ3 whole entry F211A): as the sequence (Q9NZZ3 whole entry P214G) above, with F211A, G214P counted along it
Sequence of Charged multivesicular body protein 5 (Homo sapiens), Q9NZZ3-1 L213A (Q9NZZ3 whole entry L213A): as the sequence (Q9NZZ3 whole entry P214G) above, with L213A, G214P counted along it

Row | effect of a mutation on the interaction (brox_human BROX [1]) | effect of a mutation on the interaction (brox_human BROX [2]) | Substance
1 | decreasing interaction strength | disrupting interaction strength | Charged multivesicular body protein 5 (Homo sapiens), Q9NZZ3-1 P214G
2 | decreasing interaction strength | disrupting interaction strength | Charged multivesicular body protein 5 (Homo sapiens), Q9NZZ3-1 F211A
3 | disrupting interaction strength | – | Charged multivesicular body protein 5 (Homo sapiens), Q9NZZ3-1 L213A

Reference: IntAct's records for PubMed 22484091
